The test system of this data set is RR-Src peptide.

As to “GST-XD4 (glutathione S-transferase fusion of the XD4 fragment of v-Src, wild-type catalytic domain)”, the KM (mM) for protein substrate RR-Src, ATP saturated came to 2.6 mM. Turning to GST-XD4(V323A, I338A), the KM (mM) for protein substrate RR-Src, ATP saturated worked out at 3.1 mM and the KM (mM) for protein substrate RR-Src, N^6-(cyclopentyl)ATP saturated came out at 2.1 mM.
